In US20250325640A1:

Biological target: CD20 on Daudi cells (UniProt P11836)
Experiment: cell-based or functional assay

Rituximab (anti-CD20 IgG, Mabthera) (antibody)
complement-dependent cytotoxicity (CCK8 cell survival, baby rabbit serum) (% of cells dead): 70
